For the test, the target named is T1, I53-50B.4PosT1.
T1 construct: also called second component; CompB
The test can be described thus: in vitro assembly with I53-50B, DLS. As for the experimental part: Selected constructs were incubated with a second component, I53-50B, to form nanostructures. Dynamic Light Scattering (DLS) and negative-stain electron microscopy (nsEM) confirm assembly as nanostructure. A representative electron micrograph is shown in FIG. 5 (RSV/B.195, having the DS-Cav).
Assembly: Molar concentrations for RSV/B or RSV/A trimers fused to I53-50AΔcys and I53-50B (second component, using the sequence of I53-50B.4PosT1, SEQ ID NO:46) were determined using UV-Vis spectroscopy. Absorbance values at 280 nm were collected and divided by calculated molar extinction coefficients (ExPASy). The assembly reaction to produce RSVB antigen-bearing nanostructures was performed in vitro with the addition of components as follows: RSV F trimers fused to I53-50AΔcys were added to PCR tubes in 1.5× molar excess of I53-50B, then assembly buffer (20 mM Tris pH 7.4, 250 mM NaCl, 4% sucrose) was added to the sample in PCR tubes, and finally I53-50B was added to the reaction to bring the assemblies to a final concentration of 7.5 μM and a final volume of 47.5 μL. The reaction was incubated at ambient temperature for ˜30 minutes with gentle rocking prior to subsequent measurement by dynamic light scattering (DLS). All constructs were assembly competent under the conditions tested. Prior to nsEM analysis or immunogenicity studies, assembled nanostructures were further purified by size exclusion chromatography over a Superose 6 Increase 10/300 GL column into 20 mM Tris pH 7.4, 250 mM NaCl, 4% sucrose.

Residue numbers refer to the chain shown, from its start.

B1: RSV/B.171 (other)
chain: QNITEEFYQSTCSAVSRGYLSALRTGWYTSVITIELSNIKETKCNGTDTKVKLIKQELDKYKNAVTELQLLMQNTPAVNNRARREAPQYMNYTINTTKNLNVSISKKRKRRFLGFLLGVGSAIASGIAVCKVLHLEGEVNKIKNALQLTNKAVVSLSNGVSVLTFRVLDLKNYINNQLLPMLNRQSCRISNIETVIEFQQKNSRLLEITREFSVNAGVTTPLSTYMLTNSELLSLINDMPITNDQKKLMSSNVQIVRQQSYSIMCIIKEEVLAYVVQLPIYGVIDTPCWKLHTSPLCTTNIKEGSNICLTRTDRGWYCDNAGSVSFFPQADTCKVQSNRVFCDTMNSLTLPSEVSLCNTDIFNSKYDCKIMTSKDDISSSVITSLGAIVSCYGKTKCTASNKNRGIIKTFSNGCDYVSNKGVDTVSVGNTLYYVNKLEGKNLYVKGEPIINYYDPLVFPSDRFAASISQVNEAINQSREIIRAINIVRKIASEKGSGGSGSGSGGSEKAAKAEEAARKMEELFKKHKIVAVLRANSVEEAIEKAVAVFAGGVHLIEITFTVPDADTVIKALSVLKEKGAIIGAGTVTSVEQARKAVESGAEFIVSPHLDEEISQFAKEKGVFYMPGVMTPTELVKAMKLGHTILKLFPGEVVGPQFVKAMKGPFPNVKFVPTGGVNLDNVAEWFKAGVLAVGVGSALVKGTPDEVREKAKAFVEKIRGATELEHHHHHH
Turning to B1, the binding result is listed as “binds”.

B2: RSV/B.178 (other)
chain: B1 chain with T224P, D461A
B2: the binding result is listed as “binds”.

B3: RSV/B.172 (other)
chain: B1 chain with T224P
For the molecule B3, the binding result is listed as “binds”.

B4: RSV/B.195 (other)
chain: B1 chain with D375T, R462E, A464D, A473K
With B4, the binding result is given as “binds”.

B5: RSV/B.147 (other)
chain: B1 chain with D375T, A464D
In the case of B5, the binding result was “binds”.

B6: RSV/B.160 (other)
chain: B1 chain with T224P, F463W
B6: the binding result was “binds”.

B7: RSV/B.189 (other)
chain: B1 chain with D461A, F463W
For the molecule B7, the binding result is listed as “binds”.

B8: RSV/B.148 (other)
chain: QNITEEFYQSTCSAVSRGYLSALRTGWYTSVITIELSNIKETKCNGTDTKVKLIKQELDKYKNAVTELQLLMQNTPAVNNRARREAPQYMNYTINTTKNLNVSISKKRKRRFLGFLLGVGSAIASGIAVCKVLHLEGEVNKIKNALQLTNKAVVSLSNGVSVLTFRVLDLKNYINNQLLPMLNRQSCRISNIETVIEFQQKNSRLLEITREFSVNAGVTTPLSPYMLTNSELLSLINDMPITNDQKKLMSSNVQIVRQQSYSIMCIIKEEVLAYVVQLPIYGVIDTPCWKLHTSPLCTTNIKEGSNICLTRTDRGWYCDNAGSVSFFPQADTCKVQSNRVFCDTMNSLTLPSEVSLCNTDIFNSKYDCKIMTSKTDISSSVITSLGAIVSCYGKTKCTASNKNRGIIKTFSNGCDYVSNKGVDTVSVGNTLYYVNKLEGKNLYVKGEPIINYYDPLVFPSDRFDASISQVNEAINQSREIIRAINIVRKIASEKGSGGSGSGSGGSEKAAKAEEAARKMEELFKKHKIVAVLRANSVEEAIEKAVAVFAGGVHLIEITFTVPDADTVIKALSVLKEKGAIIGAGTVTSVEQARKAVESGAEFIVSPHLDEEISQFAKEKGVFYMPGVMTPTELVKAMKLGHTILKLFPGEVVGPQFVKAMKGPFPNVKFVPTGGVNLDNVAEWFKAGVLAVGVGSALVKGTPDEVREKAKAFVEKIRGATELLEHHHHHH
Regarding B8, the binding result was “binds”.

B9: RSV/B.099 (other)
chain: QNITEEFYQSTCSAVSRGYLSALRTGWYTSVITIELSNIKEVKCNGTDTKVKLIKQELDKYKNAVTELQLLMQNTPAVNNRARREAPQYMNYTINTTKNLNVSISKKRKRRFLGFLLGVGSAIASGIAVCKVLHLEGEVNKIKNALQLTNKAVVSLSNGVSVLTFRVLDLKNYINNQLLPMLNRQSCRISNIETVIEFQQKNSRLLEITREFSVNAGVTTPLSTYMLTNSELLSLINDMPITNDQKKLMSSNVQIVRQQSYSIMCIIKEEVLAYVVQLPIYGVIDTPCWKLHTSPLCTTNIKEGSNICLTRTDRGWYCDNAGSVSFFPQADTCKVQSNRVFCDTMNSLTLPSEVSLCNTDIFNSKYDCKIMTSKTDISSSVITSLGAIVSCYGKTKCTASNKNRGIIKTFSNGCDYVSNKGVDTVSVGNTLYYVNKLEGKNLYVKGEPIINYYDPLVFPSDRFDASISQVNEAINQSLAFIRRSDELLGSGGSGSGSGGSEKAAKAEEAARKMEELFKKHKIVAVLRANSVEEAIEKAVAVFAGGVHLIEITFTVPDADTVIKALSVLKEKGAIIGAGTVTSVEQARKAVESGAEFIVSPHLDEEISQFAKEKGVFYMPGVMTPTELVKAMKLGHTILKLFPGEVVGPQFVKAMKGPFPNVKFVPTGGVNLDNVAEWFKAGVLAVGVGSALVKGTPDEVREKAKAFVEKIRGATELEHHHHHH
Consider B9, for which the binding result is given as “binds”.

B10: RSV/B.081 (other)
chain: B9 chain with V42T, T375D, D461A, D464A
B10: the binding result is listed as “binds”.

B11: RSV/B.123 (other)
chain: B9 chain with T375D, D464A
In the case of B11, the binding result is given as “binds”.

B12: RSV/B.093 (other)
chain: B9 chain with V42T, T375D, D461A, F463W, D464A
B12: the binding result is listed as “binds”.

B13: RSV/B.100 (other)
chain: B9 chain with T224P
B13: the binding result is “binds”.

B14: RSV/B.002 (other)
chain: B9 chain with V42T, R462E, A473K
notes: DS-Cav1 control; also called DS-Cav1 RSV/B.002
Consider B14, for which the binding result is listed as “binds”.

These data come from patent US20250188131A1 (ICOSAVAX, published 2025).
